The values that follow are results of earlier work, collected in publication PMC2888693.

The target in the data set is Tube DD (Drosophila melanogaster) (UniProt P22812).
Sequence of UniProt P22812 (P22812 27-152): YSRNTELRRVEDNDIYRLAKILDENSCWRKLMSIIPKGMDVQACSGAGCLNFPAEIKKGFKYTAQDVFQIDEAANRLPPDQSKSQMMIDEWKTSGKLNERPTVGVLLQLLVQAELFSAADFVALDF

Broadly, the Kd is the equilibrium constant for the complex coming apart. For Pelle DD (from UniProt Q05652), the Kd was 500 nM.
